Results on one substance are retold here after US20240417475A1.

The EC50 (read off the curve) is the concentration needed to bring the measured effect to its halfway point. The Kd is the constant that tells how readily two partners part at equilibrium. High values mean weaker binding, low ones tighter binding.

In experiment [1] the target is CD16A endogenously expressed on primary human NK cells (human) (UniProt P08637). As to the kind of experiment: flow cytometry on primary human NK cells at 37 °C, biotinylated antibody, streptavidin-FITC, without polyclonal human IgG.
CD16A endogenously expressed on primary human NK cells (human), sequence (P08637 17-254 limits assumed): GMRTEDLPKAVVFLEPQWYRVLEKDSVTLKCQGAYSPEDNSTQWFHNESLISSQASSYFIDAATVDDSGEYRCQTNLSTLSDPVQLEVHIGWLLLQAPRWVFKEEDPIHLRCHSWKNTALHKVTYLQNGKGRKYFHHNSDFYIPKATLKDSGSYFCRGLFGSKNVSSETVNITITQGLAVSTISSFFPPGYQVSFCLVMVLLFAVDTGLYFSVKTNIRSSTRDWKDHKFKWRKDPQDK
Experiment [2] shares this target. As to the kind of experiment: flow cytometry on primary human NK cells, biotinylated antibody, 37 C, with 10 mg/mL polyclonal human IgG as competitor, mean of 4.
Experiment [3] has as its target human CD16A-mFc (158F) (sAg_107) (human) (UniProt P08637). Kind of experiment: ELISA, plate coated with human CD16A-mFc (158F), anti-mouse HRP detection, A450. A general note: In an ELISA, binding on a coated surface is turned into a signal by an enzyme label.
The target in experiment [4] is human CD16A-mFc (158V) (sAg_149) (human) (UniProt P08637). Kind of experiment: ELISA, plate coated with human CD16A-mFc (158V), anti-mouse HRP detection, A450.
human CD16A-mFc (158V) (sAg_149) (human), sequence (P08637 17-208 F176V limits assumed): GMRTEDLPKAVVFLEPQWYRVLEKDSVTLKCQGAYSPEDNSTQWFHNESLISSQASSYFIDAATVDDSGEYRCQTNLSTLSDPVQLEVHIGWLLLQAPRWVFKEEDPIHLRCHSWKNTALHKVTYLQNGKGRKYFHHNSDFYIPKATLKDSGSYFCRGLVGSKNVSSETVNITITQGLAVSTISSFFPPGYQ
Experiment [5] addresses CD16A endogenously expressed on primary human NK cells (human) (UniProt P08637). As to the kind of experiment: flow cytometry on primary human NK cells, biotinylated antibody, 37 C, without IgG, mean of 4. In general terms: In flow cytometry, cells or beads pass a laser one at a time.
The target of experiment [6] is human CD16A-mFc (158F) (sAg_107) (human) (UniProt P08637). Kind of experiment: ELISA, plate coated with human CD16A-mFc (158F) (sAg_107), one-site fit, mean of 3.
human CD16A-mFc (158F) (sAg_107) (human), sequence (P08637 17-208 limits assumed): as the sequence (P08637 17-208 F176V limits assumed) above, with V160F counted along it

For anti-human CD16 antibody clone 3G8, the EC50 (read off the curve) in experiment [1] turned out to be 300 pM; in experiment [3] it was 30 pM; in experiment [4] it was 200 pM. Moreover, the Kd in experiment [2] stood at 54600 pM; in experiment [5], 300 pM; in experiment [6], 20 pM.
